Entries after “also recorded” stand apart in the source; their conditions may differ.
T1: FGF23 binding to FGFR3c (Homo sapiens, UniProt P22607+Q9GZV9)
T1 construct: Fc-coupled FGFR ectodomains were immobilized on protein A/G beads; purchased R&D Systems 2604FG025/CF or 2629FG025/CF; 766FR050
T1 sequence (Q9GZV9 25-251): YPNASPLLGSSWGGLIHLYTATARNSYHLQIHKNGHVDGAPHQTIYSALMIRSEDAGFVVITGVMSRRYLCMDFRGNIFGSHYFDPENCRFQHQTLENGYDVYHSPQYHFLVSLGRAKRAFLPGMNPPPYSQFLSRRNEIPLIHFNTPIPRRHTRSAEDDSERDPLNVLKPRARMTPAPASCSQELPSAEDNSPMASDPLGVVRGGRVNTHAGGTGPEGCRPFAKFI
T1 sequence (P22607 23-375 limits assumed): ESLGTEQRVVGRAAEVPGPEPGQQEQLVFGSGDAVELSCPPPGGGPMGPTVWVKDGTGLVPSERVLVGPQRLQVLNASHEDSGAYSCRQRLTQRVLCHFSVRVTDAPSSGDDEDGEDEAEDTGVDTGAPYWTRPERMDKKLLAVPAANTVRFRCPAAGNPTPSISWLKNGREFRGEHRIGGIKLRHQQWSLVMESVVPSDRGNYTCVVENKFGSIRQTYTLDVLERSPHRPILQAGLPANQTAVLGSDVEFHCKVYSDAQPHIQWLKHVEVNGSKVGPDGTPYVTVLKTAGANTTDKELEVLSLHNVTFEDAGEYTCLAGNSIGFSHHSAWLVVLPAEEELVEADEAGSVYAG

T2: FGF23 binding to FGFR4 (Homo sapiens, UniProt P22455+Q9GZV9)
T2 construct: Fc-coupled FGFR ectodomains were immobilized on protein A/G beads; purchased R&D Systems 2604FG025/CF or 2629FG025/CF; 685FR050
T2 sequence (Q9GZV9 25-251): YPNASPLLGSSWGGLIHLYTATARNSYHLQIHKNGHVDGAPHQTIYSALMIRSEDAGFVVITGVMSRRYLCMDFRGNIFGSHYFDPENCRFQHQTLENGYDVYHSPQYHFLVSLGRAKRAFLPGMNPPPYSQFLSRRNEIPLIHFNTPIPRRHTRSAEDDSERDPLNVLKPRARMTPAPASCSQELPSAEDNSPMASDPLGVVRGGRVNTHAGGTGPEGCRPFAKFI
T2 sequence (P22455 22-369 limits assumed): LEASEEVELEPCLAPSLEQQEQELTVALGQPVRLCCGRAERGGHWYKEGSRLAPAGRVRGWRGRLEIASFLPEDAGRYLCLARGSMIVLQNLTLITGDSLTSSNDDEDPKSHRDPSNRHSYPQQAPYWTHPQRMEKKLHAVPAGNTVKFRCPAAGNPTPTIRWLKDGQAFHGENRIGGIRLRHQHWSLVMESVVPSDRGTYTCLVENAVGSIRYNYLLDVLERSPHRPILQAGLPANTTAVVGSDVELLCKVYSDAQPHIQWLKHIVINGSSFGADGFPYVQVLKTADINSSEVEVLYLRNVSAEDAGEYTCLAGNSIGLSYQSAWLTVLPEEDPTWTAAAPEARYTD

T3: FGF23 binding to FGFR1c (Homo sapiens, UniProt P11362+Q9GZV9)
T3 construct: Fc-coupled FGFR ectodomains were immobilized on protein A/G beads; purchased R&D Systems 2604FG025/CF or 2629FG025/CF; 658FR050
T3 sequence (Q9GZV9 25-251): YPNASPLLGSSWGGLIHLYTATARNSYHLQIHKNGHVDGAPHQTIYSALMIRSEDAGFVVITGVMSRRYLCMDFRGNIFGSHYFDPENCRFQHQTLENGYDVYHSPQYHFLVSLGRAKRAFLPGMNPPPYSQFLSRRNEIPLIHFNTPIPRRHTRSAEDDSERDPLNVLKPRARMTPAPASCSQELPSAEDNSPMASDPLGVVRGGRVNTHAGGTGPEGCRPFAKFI
T3 sequence (P11362 22-376 limits assumed): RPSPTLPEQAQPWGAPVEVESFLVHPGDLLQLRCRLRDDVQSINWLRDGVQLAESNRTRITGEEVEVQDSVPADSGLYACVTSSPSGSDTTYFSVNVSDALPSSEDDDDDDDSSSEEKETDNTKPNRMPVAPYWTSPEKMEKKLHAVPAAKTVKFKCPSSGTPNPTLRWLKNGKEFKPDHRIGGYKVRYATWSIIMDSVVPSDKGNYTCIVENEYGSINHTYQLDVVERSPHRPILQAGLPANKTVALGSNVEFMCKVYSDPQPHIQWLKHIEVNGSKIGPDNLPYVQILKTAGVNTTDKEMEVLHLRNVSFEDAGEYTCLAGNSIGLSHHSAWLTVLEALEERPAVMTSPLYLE


Assays:
Experiment in all cases: Pull-down of FGF23 with Fc-FGFR on protein A/G beads with sKL, heparin or PBS
Details in all cases: with heparin, or alone
[1] = target: T1, FGF23 binding to FGFR3c
Method: (§1) To study the interaction between Fc-tagged FGFR isoforms (Fc-FGFR), FGF isoforms, and sKL, immunoprecipitation studies were conducted. Protein A beads (6501, BioVision) and protein G beads (6511, BioVision) were used at 25 μl of a 50% stock slurry per sample in a total bead volume of 50 μl. Beads were washed 5× in activity buffer (50 mM Tris [pH 7.4], 200 mM NaCl, 0.01% Tween 20). Bead spin-down assays were all performed for 2 minutes at 5000 g. Beads were resuspended in 1 ml of activity buffer in a 1.5-ml snap cap tube. One microgram of Fc-FGFR1 to 4 was incubated with the beads for 1 hour on a bead rotator. Control samples were incubated with 2 μg of anti-FGF antibody instead of Fc-FGFR. Beads were then pelleted at 5000 g for 2 minutes and washed 5× with activity buffer. Beads were resuspended and incubated with different combinations of 500 ng of FGF, 1 μg of sKL, 1.6 United States Pharmacopeia (USP) units of heparin, or phosphate-buffered saline (PBS). Beads were incubated for 1 hour on a tube rotator, and beads were pelleted and washed as before. One hundred microliters of 1× Laemmli sample buffer (1610737, Bio-Rad) with 1.42 M 2-mercaptoethanol was added, and samples were boiled for 5 minutes. Samples were analyzed using SDS-PAGE and Western blotting.
(§2) The sample (20 μl) was loaded onto Mini-PROTEAN TGX Precast Gel 4-20% for experiments with <9 samples (4568094, Bio-Rad) or Criterion TGX Precast Gel 4-20% (5678094, Bio-Rad) for experiments with >9 samples. Gels were run in 1× Tris/Glycine/SDS buffer (1610732, Bio-Rad) at 150 V and stopped when the sample dye reached the end of the gel. Gels were removed and electrotransferred via a semi-dry cassette (1703940, Bio-Rad) in I× Tris/Glycine buffer (1610734, Bio-Rad) with 20% methanol. Gels were transferred onto polyvinylidene diflouride membranes (IPVH00010, Millipore) at 20 V for 1 hour. Membranes were then blocked in 5% dried milk with 0.5% Tween 20 diluted in Tris-buffered saline (TBST; pH 7.5) for 1 hour and probed with antibodies against specific antigens at 1:1000 in TBST with 5% dried milk. Blots were washed 3× for 5 minutes in TBST and probed with HRP-coupled secondary antibodies against specific species at 1:10,000 in TBST with 5% dried milk. Membranes were imaged on the SRX-101A X-ray film developer (Konica Minolta).

[2] = target: T2, FGF23 binding to FGFR4
Method: as §1, §2

[3] = target: T3, FGF23 binding to FGFR1c
Method: as §1, §2

Molecule | FGF23 co-precipitation with Fc-FGFR3c [1] | FGF23 co-precipitation with Fc-FGFR4 [2] | FGF23 co-precipitation with Fc-FGFR1c [3]
sKL: recombinant soluble α-klotho ectodomain, mouse aa 35-982 and human aa 34-981, FLAG- or Strep/His-tagged, purified from HEK293 cells (protein, left off: small tags and cut ends, recombinant soluble α-klotho ectodomain, mouse aa 35-982 and human aa 34-981, FLAG- or Strep/His-tagged, purified from HEK293 cells) EPGDGAQTWARFSRPPAPEAAGLFQGTFPDGFLWAVGSAAYQTEGGWQQHGKGASIWDTFTHHPLAPPGDSRNASLPLGAPSPLQPATGDVASDSYNNVFRDTEALRELGVTHYRFSISWARVLPNGSAGVPNREGLRYYRRLLERLRELGVQPVVTLYHWDLPQRLQDAYGGWANRALADHFRDYAELCFRHFGGQVKYWITIDNPYVVAWHGYATGRLAPGIRGSPRLGYLVAHNLLLAHAKVWHLYNTSFRPTQGGQVSIALSSHWINPRRMTDHSIKECQKSLDFVLGWFAKPVFIDGDYPESMKNNLSSILPDFTESEKKFIKGTADFFALCFGPTLSFQLLDPHMKFRQLESPNLRQLLSWIDLEFNHPQIFIVENGWFVSGTTKRDDAKYMYYLKKFIMETLKAIKLDGVDVIGYTAWSLMDGFEWHRGYSIRRGLFYVDFLSQDKMLLPKSSALFYQKLIEKNGFPPLPENQPLEGTFPCDFAWGVVDNYIQVDTTLSQFTDLNVYLWDVHHSKRLIKVDGVVTKKRKSYCVDFAAIQPQIALLQEMHVTHFRFSLDWALILPLGNQSQVNHTILQYYRCMASELVRVNITPVVALWQPMAPNQGLPRLLARQGAWENPYTALAFAEYARLCFQELGHHVKLWITMNEPYTRNMTYSAGHNLLKAHALAWHVYNEKFRHAQNGKISIALQADWIEPACPFSQKDKEVAERVLEFDIGWLAEPIFGSGDYPWVMRDWLNQRNNFLLPYFTEDEKKLIQGTFDFLALSHYTTILVDSEKEDPIKYNDYLEVQEMTDITWLNSPSQVAVVPWGLRKVLNWLKFKYGDLPMYIISNGIDDGLHAEDDQLRVYYMQNYINEALKAHILDGINLCGYFAYSFNDRTAPRFGLYRYAADQFEPKASMKHYRKIIDSNGFPGPETLERFCPEEFTVCTECSFFHTRKS | could coprecipitate sKL and FGF23 | could coprecipitate sKL and FGF23 | could coprecipitate sKL and FGF23; also recorded: complex formation with FGFR1c
FGF23: recombinant fibroblast growth factor 23 protein from R&D Systems (protein) YPDTSPLLGSNWGSLTHLYTATARTSYHLQIHRDGHVDGTPHQTIYSALMITSEDAGSVVITGAMTRRFLCMDLHGNIFGSLHFSPENCKFRQWTLENGYDVYLSQKHHYLVSLGRAKRIFQPGTNPPPFSQFLARRNEVPLLHFYTVRPRRHTRSAEDPPERDPLNVLKPRPRATPVPVSCSRELPSAEEGGPAASDPLGVLRRGRGDARGGAGGADRCRPFPRFV | no FGF23 binding was detected | no FGF23 binding was detected | no FGF23 binding was detected
